Measured values as given in the nanobody polyreactivity screen of Harvey et al. (2022).

Experiment: yeast display, Sf9 membrane polyspecificity reagent, FACS + sequencing; frameworks hold sequencing errors
Procedure, shortened: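 After 36–48 hours of galactose induction, yeast (Saccharomyces cerevisiae BJ5465) displaying a synthetic nanobody library were stained at 4 °C for 1 hour with 10% biotinylated, detergent-solubilized Sf9 membrane reagent. Streptavidin microbeads enriched the stained cells before FACS sorting into low and high (top ~1%) gates on anti-HA and streptavidin fluorescence. Each clone's polyreactivity label reflects its gate of origin.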

Sequence | polyreactivity (PSR sort gate)
QVQLVESGGGLVQAGGSLRLSCAASGRTFAGNAMGWYRQAPGKERELVATITSRGTITYYADSVKGRFTISRDNAKNTVYLQMHSLKPEDTAVSYCNVRYYFPRYQQPYQLNEYYYWGQGTQVTVSS | low polyreactivity
QVQLVESGGGLVQAGGSLRLSCAASGRTFAIYAMGWYRPAPGKEREFVAAISWSGGDTYYADSVKGRFTISRDNAKNTVYLQMNSLKPEDTAVYYCAARDYDYEGRDLQYELDYWGQGTQVTVSS | low polyreactivity
QVQLVESGGGLVQAGGSLRLSCAASGRTFALYAMAWYRQAPGKERELVASISWRGGSTYYADSVKGRFTISRDNAKNTVYLQMNSLKPEDTAVYYCAADTWSYGPLNYRLEYWGQGTQVTVSS | low polyreactivity
QVQLVESGGGLVQAGGSLRLSCAASGRTFALYAMGSYRQAPGKERELVAGITFRGGSTYYADSVKGRFTISRDNAKNTVYLQMNSLKPEDTAVYYCAAVPRVNLSRYVYFWYDYWGQGTQVTVSS | high polyreactivity
QVQLVESGGGLVQAGGSLRLSCAASGRTFANYAMGWYRQAPGKERELVAAISVSTVSTYYADSVKGRFTISRDNAKNTVYLQMNSLKPEDTAVYYCAATSPYKYWYRYNYWGQGTQVTVSS | high polyreactivity
QVQLVESGGGLVQAGGSLRLSCAASGRTFAPYAMAWYRQAPGKERELVAVISSSGGRTYYADSVKGRFTISRDNAKNTVYLQMNSLKPEDTAVYYCAADVYGYRFFKTGRYDYWGQGSQVTVSS | high polyreactivity
QVQLVESGGGLVQAGGSLRLSCAASGRTFAQYVMGWYRQAPGTERELVAAISGIGGSTYYADSVKGRFTISRDNAKNTVYLQMNSLNPEDTAVYYCAVELYWYPGYDYWGQGTQVTVSS | low polyreactivity
QVQLVESGGGLVQAGGSLRLSCAASGRTFARNAMGRYRQAPVKERELVAVISKGGSRTYYADSVKGRFTISRDNEKNTVYLQMNSLKPEDTAVYYCAARHYVTRDESYDYWGQVTQVTVSS | high polyreactivity
QVQLVESGGGLVQAGGSLRLSCAASGRTFARNAMGWYRQAPGKERELVAAITSGGSTNYADSVKGRFTISRDNAKNTVYLQMNSLIPEDTAVYYCAADGAQYYYGRYYYWGQGTQVTVSS | high polyreactivity
QVQLVESGGGLVQAGGSLRLSCAASGRTFARYAMGWYRQAPGKERELVAAISWSGGSTYYADSVKGRFTISRDNAKNTVYLQMNSLKPEDTAVYYCAAGYGARSAIFDVYGTNEGDYWGQGTQVTVSS | high polyreactivity
QVQLVESGGGLVQAGGSLRLSCAASGRTFARYAMGWYRQAPWKERELVAAISRGGDSTYYADSVKGRFTISRDNAKNNVYLQMNSLKPEDTADYYCNAYVILALGYGGYDYWGQGTQVTVSS | high polyreactivity
QVQLVESGGGLVQAGGSLRLSCAASGRTFASNAMGWYRQAPGKERELVAAISSAGGTNYADSVKGRFTISRDNAKNTVYLQMNSLKPEDTAVYYCAAASPYYSYHRYIYYYWGQGTQVTVSS | high polyreactivity
QVQLVESGGGLVQAGGSLRLSCAASGRTFASNVMGWYRQAPGKERELVAAISRRGGSTYYADSVKGRFTISRDNAKNTVYLQMNSLKPEDTAVYYCNAVLYHLTYDYWGQGTQVTVSS | high polyreactivity
QVQLVESGGGLVQAGGSLRLSCAASGRTFASYAMGWYRQAPGKERELVAVITRGGRTYYADSVKGRFTISRDNAKNTVYLQMNSLKPEDTAVYYCNAAYYSSSYLEDSWGQGTQVTVSS | high polyreactivity
QVQLVESGGGLVQAGGSLRLSCAASGRTFASYMGWYRQAPWKERELVAAINWSGGTTYYADSVKGRFTISRDNAKNSVYLQMNSLKPEDTAVYYCNKLGYQSRGDYWGQGTQVTVSS | high polyreactivity
QVQLVESGGGLVQAGGSLRLSCAASGRTFASYVMGWYRQAPGKERELVASITRTGSTYYADSVKGRFTISRDNAKNTVYLQMNSLKPEDTAVYYCNAATFYRRSSTRGFNYWGQGTQVTVSS | high polyreactivity
QVQLVESGGGLVQAGGSLRLSCAASGRTFATYSMGRYIQAPGKERELVAAISRSGSTTYYADSVKGRFTISRDNAKNTVYLQMNSLKPEDTAVYYCNAKFRKADYDYWGQGTQVTVSS | high polyreactivity
QVQLVESGGGLVQAGGSLRLSCAASGRTFAYNAMGWYRQAPGKERELVAAISSSGGSTYYADSVKGRFTISRDNAKNTVYLQMNSLKPEDTAGYYCATQGFSWAHGSDYWGQGTQVTVSS | low polyreactivity
QVQLVESGGGLVQAGGSLRLSCAASGRTFAYNAMGWYRQAPGKERELVAANTDSDGNTNYADSVKRRFTISRDNAKNTVYVLLNSLIPEDTAVDYCAADYIILVHVTRGFGYEYWGQGTQVTVSS | low polyreactivity
QVQLVESGGGLVQAGGSLRLSCAASGRTFAYYAMGWYKQAPGKERELVAAISWSGGSTYYADSVKGRFTISRDNAKYTVYLQMNSLKPEDTAVYYCNTLGGTEYGYWGQGTQVTVSS | high polyreactivity
QVQLVESGGGLVQAGGSLRLSCAASGRTFAYYAMGWYRQAPGKERELVAAISTSGTRTYYADSVKGRFTISRDNAKNTVYLQMNSLKPEDTAVYYCAARYRYQYEFDYWGQGTQVSVSS | high polyreactivity
QVQLVESGGGLVQAGGSLRLSCAASGRTFAYYAMGWYRQAPGKERELVATITWNGGSTYYADSVKGRFTISRDNAKNTVYLQMNSLKPEDTAVYYCAVRLWFDYNYWGQGTQVTVSS | low polyreactivity

Sequence | polyreactivity (PSR sort gate)
QVQLVESGGGLVQAGGSLRLSCAASGRTFAYYAMGWYRQAPGTERELVATINSAGCTYYADSVKGRFTISRDNAKNTVYLQMNSLKPEDTAVYYCNAAYKSQVRYRRYIYWGQGTQVTVSS | high polyreactivity
QVQLVESGGGLVQAGGSLRLSCAASGRTFAYYTMGWYRQAPGKERELVAAITSSGGSTYYADSVKGRFTISRDNAKNTVYLQMNSLKPEDTAVYYCNAYGLRWASRLGYDYWGQGTQVTVSS | high polyreactivity
QVQLVESGGGLVQAGGSLRLSCAASGRTFAYYVMGWYIQAPGTERELVAAISWSAGCTYYADSVKGRFTISRDNAKNTVYLQMNSLIPEDTAVDYCAADYRFRYEYWGQGTQVTVSS | low polyreactivity
QVQLVESGGGLVQAGGSLRLSCAASGRTFCVNAMGWSRQAPGKERELVAAITGGGSTYYADSVKGRFTISRDNAKNTVYLQMNSLKPEDTAVYYCNADRRRRSGGFAGWHFQRNDYWGQGTQVTVSS | low polyreactivity
QVQLVESGGGLVQAGGSLRLSCAASGRTFCYYTMVWYRQAPGKEREMVASISRVTSTYYADSVKGRFTISRDNAKNTVDLQMNSVKPEDTAVYYCAADRTRYYVGYRWTGNKMVYWGQGTQVTLSS | low polyreactivity
QVQLVESGGGLVQAGGSLRLSCAASGRTFDAYAMGWYRQAPGKERELVAAIRRGSSTNYADSVKGRFTISRDNAKNTVYLQMNSLKPEDTAVYYCAARRQWLGIRTGYNYWGQGTQVTVSS | high polyreactivity
QVQLVESGGGLVQAGGSLRLSCAASGRTFDDNAMGWYRQAPGKERELVAAISSTGSTNYADSVKGRFTISRDNAKNTVYLQMNSLKPEDTAVYYCNTDRGHERAYYYWGQGTQVTVSS | low polyreactivity
QVQLVESGGGLVQAGGSLRLSCAASGRTFDEYAMGWYRQAPGKERVLVAAIDSGGSTTYADSVKGRFTISRDNAKNTVYLQINSLKPEDTAVYYCAASYPYWYITPRKFEYWGQGTQVTVSS | low polyreactivity
QVQLVESGGGLVQAGGSLRLSCAASGRTFDEYAMVWYRQAPGKERELVAAINSSGNTYYADSVKGRFTISRDNAKNTVYLQMNSLKPEDTAVYYCAVRSYNTISDDMDYWGQGTQVTVSS | low polyreactivity
QVQLVESGGGLVQAGGSLRLSCAASGRTFDGYAMGWYRQAPGKEREMVAAISRGGGNTRYADSVKGRFTISRDNAKNTVYLQMNSLKPEDTAVYYCNKLSFFPYITDEYWGQGTQVTVSS | high polyreactivity
QVQLVESGGGLVQAGGSLRLSCAASGRTFDLNDMGWYRQAPGKEREFVADIDWSGGNTYYADSVKGRFIISRDNAKNTVYLQMNSLKPEDTAVYYCNARRKRSYDYWGQGTQVTVSS | low polyreactivity
QVQLVESGGGLVQAGGSLRLSCAASGRTFDLNVMGWSRQAPGKERELVAASSFSGGSTYYADSVKGRFTLSRDNAKNTVYLQMNSLKPEDTAVYYCAADGYVRPPEMDYWGQGTQVTVSS | high polyreactivity
QVQLVESGGGLVQAGGSLRLSCAASGRTFDNYAMGWYRQAPGKERELVAAISSSGGRTYYADSVKGRFTISRDNAKNTVYLQMNSLKPEDTAVYYCAAVWPVYRTHPGMDYWGQGTQVTVSS | high polyreactivity
QVQLVESGGGLVQAGGSLRLSCAASGRTFDPNAMGWYRQAPGKERELVAAIRWTGTSTYYADSVKGRFTISRDNAKNTVYLQMNSLKPEDTAVDYCNARGSYRLRYDYWGQGTQVTVSS | high polyreactivity
QVQLVESGGGLVQAGGSLRLSCAASGRTFDPYAMGWYRQAPGKERELVAAITSGDDTYYADSVKGRFTISRDNAKNTVYLQMNSLKPEDTAVYYCAADSFTPDYYSHDYWGQGTQVTVSS | low polyreactivity
QVQLVESGGGLVQAGGSLRLSCAASGRTFDRNAMGWYRKAPGKERELVARITIDGSTNYADSVKGRFTISRDNAKNTVYLQMNSLKPEDTGVYYCAAYSASYGGYDYWGQGTQVTVSS | high polyreactivity
QVQLVESGGGLVQAGGSLRLSCAASGRTFDRNTMGWYRQAPGKERELVAAISSSGGSTYYADSVKGRFTISRDNAKNTVYLQMNSLKPEDTAVYYCAVLSRQYFRYGYDYWGQGTQVTVSS | high polyreactivity
QVQLVESGGGLVQAGGSLRLSCAASGRTFDRYAMGWYRQAPGKEREFVAVISSSGVRTNYADSVKGRFTISRDNAKNTVYFQMNSLKPEDTAVYYCAAVFWFRSLSGYIYDYWGQGTQVTVST | low polyreactivity
QVQLVESGGGLVQAGGSLRLSCAASGRTFDSYAMGWYRQAPGKERELVAAISRAGGTNYADSVKGRFTISRDNAKLTVYLQMNRLKPDDTEVYYCAVRQAVYGLRSDFYYWGQGSQVTVSS | high polyreactivity
QVQLVESGGGLVQAGGSLRLSCAASGRTFDVYAMGWDRQAPGKERELVAASTSGGSTYYADSVKGRFTISRDNAKNTVYLQMNSLKPEDTAVYYCATDVDKSLYDYWGQGTQVTVSS | low polyreactivity
QVQLVESGGGLVQAGGSLRLSCAASGRTFDVYAMGWYRQAPGKERELVATISRSGGSTYYADSVKGRFTISRDNAKNTVYLQMNSLKPEDTAVYYCAARKRSPPYGYWGQGTQVTVSS | high polyreactivity
